The results in this text go back to article PMC3745222.

This experiment has as its target full-length GST-Smad3 (UniProt P84022). Description: pull-down.
UniProt P84022, sequence (P84022 whole entry): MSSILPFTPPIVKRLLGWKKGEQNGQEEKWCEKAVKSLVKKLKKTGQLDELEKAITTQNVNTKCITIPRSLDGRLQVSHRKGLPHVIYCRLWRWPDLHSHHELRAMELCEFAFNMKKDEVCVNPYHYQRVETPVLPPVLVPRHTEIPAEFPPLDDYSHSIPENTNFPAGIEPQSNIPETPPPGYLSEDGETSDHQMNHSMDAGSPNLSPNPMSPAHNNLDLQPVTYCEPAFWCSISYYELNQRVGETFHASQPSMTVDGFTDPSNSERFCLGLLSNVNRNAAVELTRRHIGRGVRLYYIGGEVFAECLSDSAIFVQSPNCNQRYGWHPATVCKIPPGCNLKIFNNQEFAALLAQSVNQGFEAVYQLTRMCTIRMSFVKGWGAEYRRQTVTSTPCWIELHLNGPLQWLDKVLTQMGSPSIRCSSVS

“intracellular Notch1 (ICN1), the active form of Notch1 (domain or fragment)”: the fold increase of binding in β2SP shRNA cells against control cells was determined as 2 fold.
